Measured values: the DeepSol protein solubility set

assay: soluble on expression in E. coli; label from the status in PepcDB or PDB records

Soluble on expression in E. coli, not soluble:
MGSDKIHHHHHHMLLAVDHTTHYVFSGPVSHGLQRLRLAPKSTAGQRVVEWSMQFEGARLQAEYDDANNNRVSLISFDPGVSQVTIRCEGLVDTNDEAGIIGKHAGFMPMWQFLEQTDLTRAGARTRALLAALPHEDSTLVKLHALSALVRERVEYASGHTDVDTTAEGALAAGRGVCQDHAHIFIGAARALGIPARYACGYLMMDDRVEQDAGHAWAEAHVESLGWVGFDVSNGISPDARYIRVATGRDYRDAAPVTGIRYGAMDEAMHVRLAVQQQRVEQ, MGSDKIHHHHHHMLMETTRLLDIRSMSVEFPGVKALDQVDFTLNRGEIVALLGENGAGKSTLIKALTGVYHRSSGDIILDGIAINPVNTAHAQSLGIGTVYQEVNLLPNLSVAANLFIGREPTRWGIVDQHKILLQAEALLLNYGLAIDVSHPLGNYSIAVQQIVAIARAVDLSAKVLILDEPTASLDAKEVDMLLDILRKLRDRGIGMIFVTHFLDQVYRISDRITVLRNGRLVGTLPTAELPRIELVQMMLGHSFDETLLKRGEHSDVSGEPIVQFKHYGRRGSINDFELSVRPGEIVGLAGLLGSGRTETAQLIFGINVPDAGEAWVDGKKINIRTPRAAGKLGFGYCPEDRKTDGIVGAATVRENIILALQAQRGWLKPISLREQTRIAEKFISLLGIRTPSAEQEIQYLSGGNQQKVLLSRWLATEPRFLILDEPTRGIDVGAHAEIIRLIEKLCEQGMALLVISSELEELTGYADRIIVLRDRQHVAHLEHSEISVAAVMQAIAVQTGAADDRQ, MGSDKIHHHHHHMLNLEQLNAFIAAVEKGSFSAAARHIGKSQSSVSIGVNNLELDLGVELFDRSTKYPQLTEQGERLYHQAKALMRQATRMESYAKGVIEAVEDQLVIGADPLVPMSVFDSALEKMAEKFPFTRVKLVKLTGNHLNRAIEADEVDVGFNIMSEAVPENLDFIGIARIEWVCICSPDYKFADLEAVDSEMLINERQIVCSSMLQNEYLAKLGRVSQETWEASDLDDMIRLVEQGIGWGIIPLSMYEEKAAIGTLSTFKPVIEKETGLITVDLLWKSTAQLGPAKSFFIDLLKR, MGSDKIHHHHHHMLQTINLTQRYATKKLFENVNIKLDKNKRYGLIGANGAGKSTFLKILSKSIDCSSGEVIITSGMKMGVLGQDQYAFEDLSLKDAVLIGNKRLYDAIKEKERLYTEGDLSDDKVNARLGELETICVEEDPMYECEVAIEKILEDLGIPSSKHNDLMKTLPSSDKFKILLAQVLFPKPDILLLDEPTNNLDLNAIEWLENNLKRHEGTMVVISHDRHFLNAVCTHILDLDFHSVREFSGNYDDWYIASTLIAKQQEAERNKKLKEKEELEKFIARFSANASKAKQATSRQKQLDKLDIQSLAVSSRRDPSIIFKPKRTIGNEALECENISKSYDDQIVLNQVSLKVMPKDKIALIGPNGVGKSTLCKILVEELKPDKGVVKWGATVSKGYFPQNVSEEISGEETLYQWLFNFNKKIESAEVRNALGRMLFNGEEQEKCVNALSGGEKHRMVLSKLMLEGGNFLVLDEPTNHLDLEAIIALGEALFKFDGALICVSHDRELIDAYANRIIELVPSPKGASIIDFKGSYEEYLASKK, MGSDKIHHHHHHMLTLRQALLALFHQFETLFHYLEHLCRHRSAARPGRSSFLHSSVEIQVKETLIRNLWYVAGTSDEFAPGQLVGQTIVGLPLVLWRPEAGGEVVAFDGRCCHKRMPLAAGKLLADGTLECAYHGLCFDSAGKCVKIPSQPGRAIPSRAKLRPYPIVEQDGMVWIWMGDDANPALRPPRIPELASPEWEAIRVQNAEVPTNYLLLIENLLDISHFYPLHDGNIGDIANSEIPVEFSHEGVQGNRSVTSVRKAESYRHPPYLEDFFGYELVDRHHSHSMISPAAIRVDLRCAPPGRLETEDERGYILTHLITPIDERHHRWRVIAACRAGHRWPADPSVSTVARVAEKFPGVIAQDLWALTEQQKMLDLADTHYLGEMHLRADTGILKAREIVRDMVAAEAQPASQAVAA, MGSDKIHHHHHHMLTMKPEFVAQLERVLSSVEMLLPRAVKPVNWSTCYAANWRRHSFSGFLQAVRVTDTTSLHELLGVEKQKEIMISNTRQFLKGLPANNALLWGSRGTGKSSLVKALLNEYACEGLRVIQVEKEDLIYLSDIFSAVEGEPYRFILLCDDLTFEPGELTYKILKSALDGSVYSPPENVLIYVTSNRRHLLPEYESDNIGWKLVNGELQESEATEEKIALSDRFGLWVPFHVFTQDRYLEAVRLCVEREARTREVDIPWSEQLRLDAIQWSHDKKKRCGRTAYQFSKHWVGKYLLARQAA, MGSDKIHHHHHHMLTSRKFFPSLSSLRALEALDRLGSASAVAEELALTQSAVSRQLQTLEGQMGVELIRRDRKRLSLTPAAQDYVTEIREALNRIAQASLRLQVAPAGGTVNLAILPTFGMRWLMPRLPEFSRLHPDITINMTTRLRPFNFASEPFDAALHFGEPDWPGTDRLLLRAERVLPVCAPGLLPHGAPKSPADLLRLPLLHIQTRPRAWQDWFAQMGVTCPETLPGTLYDQFATIGQAALHGLGVALLPNYVVEQDLATGRLVAAYPDAVETLGAYYLVWPRARGNDPSLRAFRHWLAAQAEPEEGLPR, MGSDKIHHHHHHMLTTGTTRITGDRKLNDLIGHLIDPQLVEVEAAPQIKAMATSRLNFKMQKQTQTNWCWAAVSASVGNFYRTGSWTQCGVASASLDRNCCNQPGPCNIYGYLDSALRITRSYNGMNRGSLQMSAIRNQIKKGRPIGLRCAWYGGGAHFLVIYGTDGDYLLIADSIYGYSTRALNSFPRLYKSGGNWTDTYFTVKK, MGSDKIHHHHHHMLTTLAINNYRSLRDIRLPLGRLNLVTGANGSGKSNLYKALRLLAQTAQGGVVNALAQEGGLDSCFWAGPENLTKGMLSGDTEITPTVRQQTKRLKLGFAGDEFSYLIELGLPKPDNTTLFGLDPQIKREAIWVGNKYRPAAVLVERRGPMVKGRAQQRGQDGWQSLNQHMQHGDSIFTELSDPSRTPEVLRLRDSIRAWRFYDHFRSDSEAPARQPQLGTRTPVLHHDGRDLASAIQTIFEIGDRESFDEAVSDAFPGAHVTIGYQAGGLLSVNFHQQGLLRPLNAQELSDGTLRYLLLIAALLTPRPPELMVLNEPETSLHPDLLPALARLIAKATKVCQLWVVSHANRLINALNEFEQCQLIELDKQLGQTRIVGQDLLSTPGWNWQQKAQG, MGSDKIHHHHHHMLVASLVLLGLYDLFQAKHSILRNFPVIGHMRYLLEMIGPELHQYFVESDTDGKPINKNHRNYIYERAKEQNQTRPFGTQLNVYDDNYKWMQHSIYPAKKMDTPPRVVIGGKDCQQPYSASLFNISAMSFGALSKNAIQALNLGAKAGEFFHDTGEGGISEYHLQGGDLVWEIGTGYFGCRTGNGCFDAEKFKQKANWE, MGSDKIHHHHHHMLVENSHTPDALAEAFATVDGLMATGKFARSLSVMLPFVQTGELDAGLLDRTADCFFEMRDYENAVNVMRHVTATWPDDPSAWGKLGLMLQTKGDLLGAEQAFEEVLKRDPNSIPALTALNGIETFSVDSLYAQRLMSLSEREDLDAKHRALIHYALAQIAHGSGEAEVAFTLFQSARNEVAGPFAPAIFDEMVAEQEALFEPRPASEDASLLPKLVFIGGMPMSGTGLVDRILAQHPGVFSVGAKTALSRTHGAIRMHLAKTDRPCNYWDWMEHLSAEEIDIFRQYYLERALGGQVAGGKTIVDAHPLGCLEFGLAQFLFPEAKFVFMSRHPMDTALANIASNVLNGNALASRTEWIAQVMRTVYSSATVYASKLGDSMRLQSYEALVQNSEREIGLLLEHAGLEYNAACLTPNALCDVPQIATMLGQEELSTETQNQWLPYEEQLQGFYEQLGGERWVSAWEDFDKTLR
